Source: the nanobody polyreactivity screen of Harvey et al. (2022)

Assay: yeast display, Sf9 membrane polyspecificity reagent, FACS + sequencing; frameworks hold sequencing errors
Summary of the method: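 Galactose-induced (36–48 hours) yeast carrying a synthetic nanobody display library were exposed to 10% biotinylated, detergent-solubilized Sf9 membrane reagent at 4 °C for 1 hour. FACS followed streptavidin microbead enrichment, using low and high (top ~1%) gates for expression (anti-HA) and reagent binding (streptavidin). Colony PCR, MiSeq 2 × 250 sequencing and CDR-length filtering followed. Labels for polyreactivity reflect the gate of origin.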

Row | Sequence | polyreactivity (PSR sort gate)
1 | QVQLVESGGGLVQAGGSLRLSCAASGSIFVRNAMGWYRQAPGKERELVAAITYRGGSTYYADSVKGRFTISRDNAKNTVYLQMNSLKPEDTAVYYCAARYWQSYRSQVTHSSTLDYWGQGTQVTVSS | low polyreactivity
2 | QVQLVESGGGLVQAGGSLRLSCAASGSIFVRNAMGWYRQAPGKERELVASISYSGGTTYADSVKGRFTISRDNAKNTVYLQMNSLKPEDTAVYYCNAGGVYPRFTFLEQGYEMDYWGQGTQVTVSS | low polyreactivity
3 | QVQLVESGGGLVQAGGSLRLSCAASGSIFVRYAMGWYRQAPGKERELVAAISSGGRTYYADSVKGRFTISRDNAKNPVYLQMNSLKPEDTAVYYCNAVKRVPSLGPYDYWGQGTQVTVSS | high polyreactivity
4 | QVQLVESGGGLVQAGGSLRLSCAASGSIFVRYAMGWYRQAPGKERELVAGITNSGGSTYYADSVKGRFTISRDNEKNTVYLQMNSLKPEDTAVYYCAADAGGWWYKYYYWGQGTQVTVSS | high polyreactivity
5 | QVQLVESGGGLVQAGGSLRLSCAASGSIFVRYAMGWYRQAPGKERELVASIRSRGDSTYYADSVKGRFTISRDNAKNTVYLQMNSLKPEDTAVYYCAGRRYPPRMDYWGQGTQVTVSS | high polyreactivity
6 | QVQLVESGGGLVQAGGSLRLSCAASGSIFVRYTMGWYRQAPGKEREMVAAISWGGGSTYYADSVKGRFTISRDNAKNTVYLQMNSLKPEDTAVYYCNADWSWYNYYDFDYWGQGTQVTVSS | low polyreactivity
7 | QVQLVESGGGLVQAGGSLRLSCAASGSIFVSNAMGWYRQAPGKERELVAAISQSGGSTYYADSVKGRFTISRDNAKNTVYLQMNSLKPEDTAVYYCATPIRSGFRIYDYWGQGTQVTVSS | low polyreactivity
8 | QVQLVESGGGLVQAGGSLRLSCAASGSIFVSYAMGWYRQAPGKERELVAAIRRGGTSTYYEDSVKGRFTISRDNAKNTVYLQMNSLKPEDTAVYYCAAPRYFTRYRPLGIYDYWGQGTQVTVSS | high polyreactivity
9 | QVQLVESGGGLVQAGGSLRLSCAASGSIFVTNAMGWYRQAPGKERELVAAIRWSGDSTYYADSVKGRFTISRDNAKNTVYLQMKSLKPEDTAVYYCDAESFRYIRLNYKYGDYYWGHGTQVTVSS | high polyreactivity
10 | QVQLVESGGGLVQAGGSLRLSCAASGSIFVTNAMGWYRQAPGKERELVAAITRGGNTNYADSVKGRFTISRDNAKNTVYLQMNSLKPEDTAVYYCAADTSYYYVYGYFPGYYYWGLGTQVTVSS | low polyreactivity
11 | QVQLVESGGGLVQAGGSLRLSCAASGSIFVTYALGWYRQAPGKERELVAAINSGGRTNYADSVKGRFTISRDNAKNTVYLQMNSLKPEDTAVYYCAATGRYFYPYYRYDYWGQGTQVTVSS | low polyreactivity
12 | QVQLVESGGGLVQAGGSLRLSCAASGSIFVTYAMGWYRPAPGKERELVAAISTSGGSTYADSVKGRFTISRDNAKNTVYLQMNSLKPVDTAVYYCNADDPGYAVPWYWFKYDYWGQGTQVTVSS | low polyreactivity
13 | QVQLVESGGGLVQAGGSLRLSCAASGSIFVTYAMGWYRQAPGKERELVAAISTSGGSTYADSVKGRFTISRDNAKNTVYLQMNSLKPEDTAVYYCNADDPGYAVPWYWFKYDYWGQGTQVTVSS | low polyreactivity
14 | QVQLVESGGGLVQAGGSLRLSCAASGSIFVVNAMGWYRQAPGKERELVAAIDWSDGGTYYADSVKGRFTISRDNAKNTVYLQMNSLKPEDTAVYYCATVRYVQITRDDYWGQGTQVTVSS | low polyreactivity
15 | QVQLVESGGGLVQAGGSLRLSCAASGSIFVVYAMGWYRPAHGKERELVAAIDSGGSTYYADSVKGRFTISRDNAKNTVYLQMNSMKTEDTAVYYCAADIYYYLWGLYYWGQGTQVTVSS | low polyreactivity
16 | QVQLVESGGGLVQAGGSLRLSCAASGSIFVVYAMGWYRQAPGKERELVASIRTGGSTNYADSVKGRFTISRDNAKNTVYLQMNSLKPEDTAVYYCAAASWNSKRHYYVARYYYWGQGTQVTVSS | high polyreactivity
17 | QVQLVESGGGLVQAGGSLRLSCAASGSIFVVYAMGWYRQPPGKERELVAAIDSGGSTYYADSVKGRFTISRDNAKNTVYLQLNSLKPEDTAVSYCADDGSTWGDYRTYGYWGQGTQVTVSS | low polyreactivity
